From the supplement of paper PMC10899765

What was measured:
Details in all cases: 20 nM; 72 h
[1] = tested on: MCF10A; assay: percent viability (nuclei count relative to siNT); higher = more viable cells
Description: (§1)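 After 72 h, cells were fixed and stained with Hoechst and anti-fibrillarin, and nucleoli per nucleus were counted with CellProfiler. Values are plate-adjusted percent effect for the one-nucleolus and 5+ nucleoli phenotypes, normalised to siNT (0%) and to the positive controls siNOL11 or siKIF11 (100%), as the mean of biological triplicates. Percent viability is the nuclei count relative to siNT.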

[2] = tested on: MCF10A; assay: 5+ nucleoli phenotype percent effect (relative to siNT 0% and siKIF11 100%); higher = more cells with five or more nucleoli
Description: as §1

[3] = tested on: MCF10A; assay: one-nucleolus phenotype percent effect (relative to siNT 0% and siNOL11 100%); higher = more cells with one nucleolus (ribosome biogenesis inhibition)
Description: as §1

| Sequence | percent viability [1] [%] | 5+ nucleoli phenotype percent effect [2] [%] | one-nucleolus phenotype percent effect [3] [%] |
| --- | --- | --- | --- |
| CAAAGCGCUUCCCUUUGGAGC [hsa-miR-518d-3p] | 29.8 | -31.6 | 42.6 |
| GUGUGGCCGGCAGGCGGGUGG [hsa-miR-7108-5p] | 55.9 | 6.78 | -12.6 |
| UUGCCAUGUCUAAGAAGAA [hsa-miR-4659b-5p] | 42 | -38.1 | 29.7 |
| GUGGAAAGCAUGCAUCCAGGGUGU [hsa-miR-3978] | 61.1 | -30.5 | 15 |
| UGCAUCAGGCCAGAAGACAUGAG [hsa-miR-4711-5p] | 23.9 | -36.8 | 12.6 |
| UGAAGUUACAUCAUGGUCGCUU [hsa-miR-4670-3p] | 36.1 | -11.4 | 2.16 |
| UGGUUGACCAUAGAACAUGCGC [hsa-miR-380-5p] | 17.6 | -0.352 | 13.4 |
| GGCGGCGGGGAGGUAGGCAG [hsa-miR-8072] | 49.8 | -2.29 | -6.87 |
| AAAGUGCUUCUCUUUGGUGGGU [hsa-miR-520d-3p] | 74.3 | 58.4 | -16.1 |
| GCCUCUCUCGGAGUCGCUCGGA [hsa-miR-3183] | 77.6 | 40 | -23.3 |
| AAGCAAUACUGUUACCUGAAAU [hsa-miR-3942-5p] | 36.6 | 13.9 | -6.02 |
| UACCACAGGGUAGAACCACGG [hsa-miR-140-3p] | 118 | 47.1 | -23.5 |
| UGGAAGGGAGAAGAGCUUUAAU [hsa-miR-3202] | 21.6 | -35.3 | 62.8 |
| AGCAGUGUUUGUUUUGCCCACA [hsa-miR-6499-3p] | 30.3 | -48 | 16.7 |
| GGUGGGCUUCCCGGAGGG [hsa-miR-4417] | 77.8 | 35.5 | -24.2 |
| UGGGCUGCUGAGAAGGGGCA [hsa-miR-6829-5p] | 7.58 | 2.03 | 37.7 |
| CACUGUGGGUACAUGCU [hsa-miR-4318] | 35.1 | -33 | 65.2 |
| UAUGUAACACGGUCCACUAACC [hsa-miR-411-3p] | 76 | 22.1 | -6.25 |
| CGACCUCGGCGACCCCUCACU [hsa-miR-6790-3p] | 45.6 | -13.8 | 8.29 |
| UGAAGCUCUGACAUUCCUGCAG [hsa-miR-6806-3p] | 26.6 | -18.7 | 15.3 |

| Sequence | percent viability [1] [%] | 5+ nucleoli phenotype percent effect [2] [%] | one-nucleolus phenotype percent effect [3] [%] |
| --- | --- | --- | --- |
| UCCUACGCUGCUCUCUCACUCC [hsa-miR-6761-3p] | 43.5 | 14.2 | -18.4 |
| GAGGGUCUUGGGAGGGAUGUGAC [hsa-miR-1182] | 104 | 44.5 | -20.9 |
| GGGCGCCUGUGAUCCCAAC [hsa-miR-566] | 81.2 | 39.3 | -9.02 |
| AUGUCCAUAUUAUGGGUUAGU [hsa-miR-3912-5p] | 83.8 | 83.1 | -28.3 |
| CAAAAACUGCAAUUACUUUCA [hsa-miR-548ae] | 153 | 38.6 | -34.4 |
| UCCUUUGCCUAUUCUAUUUAAG [hsa-miR-3121-5p] | 56.5 | 17 | -3.46 |
| GGUGCAGUGCUGCAUCUCUGGU [hsa-miR-143-5p] | 89.5 | -0.693 | -7.79 |
| UUAUUGCUUAAGAAUACGCGUAG [hsa-miR-137] | 114 | -22.6 | 47.7 |
| GGCUGGAGCGAGUGCAGUGGUG [hsa-miR-3135b] | 43.2 | -9.26 | 9.78 |
| UGGCCCUUUGUACCCCUCCAG [hsa-miR-6851-3p] | 49.2 | 54.7 | -21.4 |
| UUAGCUUAAGGAGUACCAGAUC [hsa-miR-5579-3p] | 65.6 | 7.97 | -7.52 |
| UUUGUAUGGAUAUGUGUGUGUAU [hsa-miR-3149] | 37.6 | -7.06 | 2.3 |
| UAAAUCCCAUGGUGCCUUCUCCU [hsa-miR-605] | 31.2 | -52.1 | 53.8 |
| UCCCCUGCUCCCUUGUUCCCCAG [hsa-miR-6810-3p] | 35.1 | 4.97 | 3.27 |
| CUUCCGGUCUGUGAGCCCCGUC [hsa-miR-4664-3p] | 36.8 | -1.01 | 14.5 |
| AAAGACAUAGUUGCAAGAUGGG [hsa-miR-3617-5p] | 188 | 37.2 | -28.6 |
| GAAGAACUGUUGCAUUUGCCCU [hsa-miR-4511] | 121 | 26.2 | -30.8 |
| CAUGCUGACCUCCCUCCUGCCCCAG [hsa-miR-4728-3p] | 69.7 | 20.8 | -12.7 |
| CUACAAAGGGAAGCCCUUUC [hsa-miR-520d-5p] | 39.7 | -47.9 | 28.4 |
| CCCGCAGGUGAGAUGAGGGCU [hsa-miR-6886-5p] | 28.8 | -23.1 | 9.43 |

| Sequence | percent viability [1] [%] | 5+ nucleoli phenotype percent effect [2] [%] | one-nucleolus phenotype percent effect [3] [%] |
| --- | --- | --- | --- |
| UCUUCACCUGCCUCUGCCUGCA [hsa-miR-6754-3p] | 71.5 | 15.2 | -24.7 |
| UCGAGGAGCUCACAGUCUAGU [hsa-miR-151a-5p] | 86.8 | 9.84 | -6 |
| CCAGUAUUAACUGUGCUGCUGA [hsa-miR-16-1-3p] | 85.1 | -19.3 | 7.96 |
| CUCACUGAACAAUGAAUGCAA [hsa-miR-181b-3p] | 61.5 | 22 | -19.6 |
| GGGCUAGGGCCUGCUGCCCCC [hsa-miR-6069] | 54.3 | 21.6 | -4.55 |
| UAUAAAAUGAGGGCAGUAAGAC [hsa-miR-3163] | 53 | 30.5 | -19.2 |
| UGCCCUGCAUGGUGUCCCCACAG [hsa-miR-6799-3p] | 41.1 | -1.27 | 6.43 |
| CUGGGAGGUCAAGGCUGCAGU [hsa-miR-1273h-5p] | 38.1 | 11.3 | 11.3 |
| CAGGAGUGGGGGGUGGGACGU [hsa-miR-4433b-3p] | 65.1 | 3.45 | -5.4 |
| UCAAGUGUCAUCUGUCCCUAG [hsa-miR-6513-3p] | 126 | 42.1 | -7.47 |
| GCUGGUGACAUGAGAGGC [hsa-miR-4299] | 42.6 | 34.1 | -5.58 |
| AGGUAGAAUGAGGCCUGACAU [hsa-miR-4650-3p] | 33.4 | -12.9 | 7.9 |
| CAAAAACCACAGUUUCUUUUGC [hsa-miR-548d-3p] | 65.5 | -4.46 | -0.45 |
| AGGGCUUAGCUGCUUGUGAGCA [hsa-miR-27a-5p] | 19.8 | -11.3 | 23.8 |
| AAAGUGCUUCCUUUUAGAGGG [hsa-miR-520b] | 70.9 | 70.5 | -19.2 |
| UAGACGUGGUGAAGGAUUGAGUG [hsa-miR-6863] | 47.3 | -16.5 | 1.02 |
| UAAGUGCUUCCAUGUUUGAGUGU [hsa-miR-302d-3p] | 68 | 63.5 | -16.6 |
| UAAUGCAUUAAAUUAUUGAAGG [hsa-miR-5700] | 125 | 47.4 | -23.8 |
| UGAGGGGUUUGGAAUGGGAUGG [hsa-miR-5194] | 14.8 | 21 | 13.7 |
